Measured values reported in publication PMC6744678.

Target: Flag-CCDC74B wild-type (in HeLa cells) (human)
Assay: cross-linking; HeLa cells expressing Flag-CCDC74B treated with 1 mM disuccinimidyl suberate (DSS) in DMSO for 30 min; anti-Flag Western blot

Flag-CCDC74B wild-type (in HeLa cells) (natural protein)
stoichiometry N: 2
